Here are results for two molecules from US7491701 (BOYS TOWN NATIONAL RESEARCH HOSPITAL, dated 2009).

Where no end group is shown, it is not given here.

The target in test [1] is T1, recombinant human Hsp90α (Stressgen SPP-776, Lot No. B201401) (human, UniProt P07900 1-732).
T1 construct: Bought recombinant protein; also called purified Hsp90α; purified human Hsp90α
The test is described as follows: peptide affinity column, elution with 600 mM NaCl, silver-stained SDS-PAGE (no eluted protein was detected from the E47 column). How it is done: The columns was preabsorbed with 100 μl of 10% BSA for 30 minutes at 4° C. and mixed by rotation. The columns were then washed five times with 0.4 ml of TNGD. Four hundred (400) ng of recombinant human Hsp90α (Stressgen SPP-776, Lot No. B201401) in 100 μl of TNGD was added to each column for 30 minutes at 4° C. and mixed by rotation. The unabsorbed protein was removed by centrifugation. The columns were washed five times with 0.4 ml of TNGD, then eluted with 100 μl TNGD+600 mM NaCl. Samples were analyzed on a 4-20% SDS-PAGE gel followed by silver staining using a BIORAD Silver Stain Plus kit (No. 161-0449) as show in FIG. 5. […] The amount of protein added and eluted was determined by scanning the silver stained gel using a Alpha Imager 2200 gel imaging system. Approximately 10% of the protein corresponding to Hsp90 molecular weight was eluted with 600 mM NaCl+TGND from the E48 column while no eluted protein was detected with the same elution conditions from the E47 column.

Test [2] addresses T2, HS9A_MOUSE, heat shock protein HSP-90 alpha (HSP 86) (mouse, UniProt P07901 2-733).
T2 construct: Native protein captured from mouse brain extract; identified by mass spectrometry and western blot; also called p97; 97-kilodalton protein
The test is described as follows: peptide affinity matrix pull-down from mouse brain extract, Coomassie-stained SDS-PAGE (FIG. 1A). How it is done:
FIG. 1A Coomassie stained gel, FIG. 1B Western analysis of an identical gel with antibody to beta-COP. MW=molecular weight markers, Total=13,200 rpm supernatant loaded onto column matrix. E47=sample eluted from OTOF CTERM E47 column matrix. BC1=672 BC1, E48=OTOF CTERM E48, CC1=670 CC1. Brain extracts were made in a Potter-Elvehjem Teflon glass homogenizer using 1 ml/100 mg tissue of TNGD (50 mM TRIS 7.5, 75 mM NaCl, 10 mM EGTA, 2 mM EDTA) plus protease inhibitor 10 ul/ml (Sigma P8340). Protein extracts were absorbed to four Sulfolink-peptide affinity matrices and washed four times with TNGD. The column matrix was transferred to PCR tubes and made 1× with SDS buffer (Pierce Cat. No. 39001) and heated at 95° C. for 5 minutes. Samples were separated on a 4-20% polyacrylamide gel. E47 peptide corresponds to otoferlin exon 47 C-terminal. E48 peptide corresponds to otoferlin exon 48 C-terminal. BC1 and CC1 peptides are specific controls for E47 and E48 respectively where a di-serine replaces di-lysine. Antibody to beta-COP (Ocogene cat # PC175) was used at a dilution of 1:1500.

B1: OTOF CTERM E47 (peptide)
peptide: CYSLPGYLAKKILGA
modifications: not fully specified (residue 1); also: N-terminal Cys coupled to Sulfolink gel matrix (immobilised)
notes: also called E47 peptide; exon 47 (E47) otoferlin C-terminal peptide
Consider B1, for which the binding result in test [1] and in test [2] was “no binding” throughout.

B2: OTOF CTERM E48 (peptide)
peptide: CYSLPGYMVKKLLGA
modifications: not fully specified (residue 1); also: N-terminal Cys coupled to Sulfolink gel matrix (immobilised)
notes: also called E48 peptide; exon 48 (E48) otoferlin C-terminal peptide
In the case of B2, in test [2], the binding result is given as “binds”.
